Assay [1] addresses AMC009 SOSIP.v4.2-D7324 trimer (HIV-1 (subtype B)). Description: negative-stain electron microscopy; NS-EM, reference-free 2D class averages of purified SOSIP trimers; percent native-like trimers.
In assay [2] the target is AMC009 SOSIP.v5.2 trimer (HIV-1 (subtype B)). Description: native gel or EMSA. For orientation: In EMSA bound probe runs differently from free probe, usually more slowly.
Assay [3] shares this target. The experiment in a line: negative-stain electron microscopy; NS-EM, reference-free 2D class averages of purified SOSIP trimers; percent native-like trimers.
Assay [4] deals with AMC011 SOSIP.v4.2 trimer (HIV-1 (subtype B)). Description: native gel or EMSA.
Assay [5] has as its target AMC011 SOSIP.v5.2 trimer (HIV-1 (subtype B)). Description: native gel or EMSA.
Assay [6] shares this target. Description: negative-stain electron microscopy; NS-EM, reference-free 2D class averages of purified SOSIP trimers; percent native-like trimers.

Take “AMC009 SOSIP.v4.2-D7324 trimer (complex)”: in assay [1], the % native-like trimers was 100%.
In general, stoichiometry N refers to the number of molecules, sites or subunits per partner or assembly. As for AMC009 SOSIP.v5.2 trimer (complex), in assay [2], the stoichiometry N worked out at 3. The substance also had a % native-like trimers in assay [3] of 100%.
Substance AMC011 SOSIP.v4.2 trimer (complex) yielded a stoichiometry N in assay [4] of 3.
Regarding AMC011 SOSIP.v5.2 trimer (complex), the stoichiometry N in assay [5] worked out at 3. The % native-like trimers in assay [6] stood at 100%.

These data come from article PMC7925178.
